Data as given in patent US20170233449A1.

Molecular target: type I interferon receptor (IFNAR1 and IFNAR2) on cells (human) (UniProt P17181)
Assay: cell-based or functional assay

type I interferon receptor (IFNAR1 and IFNAR2) on cells (human), sequence (P17181 28-557, chain 1 of 2): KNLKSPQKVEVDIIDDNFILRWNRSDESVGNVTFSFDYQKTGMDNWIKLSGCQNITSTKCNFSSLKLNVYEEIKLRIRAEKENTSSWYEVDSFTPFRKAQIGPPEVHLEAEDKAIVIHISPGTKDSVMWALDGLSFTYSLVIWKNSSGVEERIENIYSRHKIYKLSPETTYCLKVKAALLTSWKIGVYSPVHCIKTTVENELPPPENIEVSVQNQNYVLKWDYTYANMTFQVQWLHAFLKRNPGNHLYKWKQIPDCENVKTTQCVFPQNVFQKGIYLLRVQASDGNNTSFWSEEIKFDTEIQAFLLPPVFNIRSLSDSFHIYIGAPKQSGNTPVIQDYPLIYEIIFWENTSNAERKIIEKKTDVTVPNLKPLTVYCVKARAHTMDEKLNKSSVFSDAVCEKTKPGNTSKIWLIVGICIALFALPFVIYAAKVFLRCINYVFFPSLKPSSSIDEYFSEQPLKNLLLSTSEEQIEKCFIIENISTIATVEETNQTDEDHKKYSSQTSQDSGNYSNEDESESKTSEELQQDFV
type I interferon receptor (IFNAR1 and IFNAR2) on cells (human), sequence (P48551 27-515, chain 2 of 2, further chain): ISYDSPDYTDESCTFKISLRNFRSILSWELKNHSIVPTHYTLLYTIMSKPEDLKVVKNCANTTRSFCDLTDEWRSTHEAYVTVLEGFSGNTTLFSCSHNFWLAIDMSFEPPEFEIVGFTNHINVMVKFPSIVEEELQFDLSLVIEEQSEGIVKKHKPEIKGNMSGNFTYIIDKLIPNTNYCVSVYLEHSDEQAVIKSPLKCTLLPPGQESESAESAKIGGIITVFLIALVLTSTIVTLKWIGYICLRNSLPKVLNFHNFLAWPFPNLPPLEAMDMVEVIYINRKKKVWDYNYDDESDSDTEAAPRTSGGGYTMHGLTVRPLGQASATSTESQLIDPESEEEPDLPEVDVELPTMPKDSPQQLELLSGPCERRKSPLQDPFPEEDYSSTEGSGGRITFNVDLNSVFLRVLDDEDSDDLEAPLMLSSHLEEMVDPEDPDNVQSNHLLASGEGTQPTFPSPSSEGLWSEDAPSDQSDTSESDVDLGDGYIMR

## human interferon-β1 (IFNβ), free wild type (from UniProt P01574 22-187) (ligand)
  EC50 Off Target (pM) iLite: 0.799 pM
  EC50 On Target (PM) ARP-1: 0.0105 nM
